Test results as given in article PMC2757159 (Biochemistry, 2009).

Target: the molecule itself
Test: SEC

B1: human H46R/H48Q copper-zinc superoxide dismutase (SOD1) double mutant (enzyme)
chain: not shown
Question: How did the “stoichiometry N” value turn out when B1 was run?
Answer: 2
